# Laboratory results: US20230212554A1 (published 2023)
# How the values were obtained:
# [1] = target: T1, NP of A/California/07/2009(H1N1/H1S) (influenza A virus, NYMC X-181 derived …); assay: ELISA on virus-infected fixed MDCK cells
# [2] = target: T1, NP of A/California/07/2009(H1N1/H1S); assay: sandwich ELISA, capture IgG; NP of lysed virus titrated; HRP-NP16 detection
# [3] = target: T1, NP of A/California/07/2009(H1N1/H1S); assay: sandwich ELISA, capture IgG; NP of lysed virus titrated; HRP-NP17 detection
# T1 sequence (P03466 whole entry): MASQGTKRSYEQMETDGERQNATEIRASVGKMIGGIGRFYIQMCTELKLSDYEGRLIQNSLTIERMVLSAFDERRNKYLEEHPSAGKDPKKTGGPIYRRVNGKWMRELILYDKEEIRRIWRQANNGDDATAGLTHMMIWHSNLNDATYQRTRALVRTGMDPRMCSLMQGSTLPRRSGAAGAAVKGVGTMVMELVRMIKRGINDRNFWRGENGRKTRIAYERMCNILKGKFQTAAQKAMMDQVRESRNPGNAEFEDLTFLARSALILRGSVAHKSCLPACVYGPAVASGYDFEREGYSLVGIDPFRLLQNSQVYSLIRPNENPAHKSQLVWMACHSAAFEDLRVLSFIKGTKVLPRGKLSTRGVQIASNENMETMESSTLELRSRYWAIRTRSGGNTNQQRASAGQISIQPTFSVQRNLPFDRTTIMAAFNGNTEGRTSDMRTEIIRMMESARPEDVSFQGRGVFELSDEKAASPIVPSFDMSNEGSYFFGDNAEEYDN
binder,measurement,setting,value
"NP21 (antibody, V domains shown) VH: EVQLVESGGGLVQPGGSLRLSCAASGFTINGYGIHWVRQAPGKGLEWVAGIWPYGGSTFYADSVKGRFTISADTSKNTAYLQMNSLRAEDTAVYYCARFYNNHGGIMDYWGQGTLVTVSS VL: DIQMTQSPSSLSASVGDRVTITCRASQDVYFYVAWYQQKPGKAPKLLIYGSRWLYSGVPSRFSGSGSGTDFTLTISSLQPEDFATYYCQQYSNFPVTFGQGTKVEIKR",EC50,[1],0.73 nM
same,EC50,[2],2.67 nM
same,EC50,[3],0.815 nM
"NP3 (antibody, V domains shown) VH: EVQLVESGGGLVQPGGSLRLSCAASGFTISNYGIHWVRQAPGKGLEWVAGIWPFGGFTSYADSVKGRFTISADTSKNTAYLQMNSLRAEDTAVYYCARFHWNDHGYMDYWGQGTLVTVSS VL: DIQMTQSPSSLSASVGDRVTITCRASQDVGWYVAWYQQKPGKAPKLLIYSTTGLYSGVPSRFSGSGSGTDFTLTISSLQPEDFATYYCQQYYNYPITFGQGTKVEIKR",EC50,[1],0.55 nM
same,EC50,[2],1.96 nM
same,EC50,[3],0.834 nM
"NP17 (antibody, V domains shown) VH: EVQLVESGGGLVQPGGSLRLSCAASGFTISGGSIHWVRQAPGKGLEWVASIWPFGGSTFYADSVKGRFTISADTSKNTAYLQMNSLRAEDTAVYYCARFGHGHNVIMDYWGQGTLVTVSS VL: DIQMTQSPSSLSASVGDRVTITCRASQDVGYSVAWYQQKPGKAPKLLISSPGGLYSGVPSRFSGSGSGTDFTLTISSLQPEDFATYYCQQYYDYPVTFGQGTKVEIKR",EC50,[1],28.7 nM
same,EC50,[2],3.28 nM
same,EC50,[3],1.02 nM
"NP6 (antibody, V domains shown) VH: EVQLVESGGGLVQPGGSLRLSCAASGFTINDGSIHWVRQAPGKGLEWVAGIGPFGGFTYYADSVKGRFTISADTSKNTAYLQMNSLRAEDTAVYYCARSGYSGSFDYWGQGTLVTVSS VL: DIQMTQSPSSLSASVGDRVTITCRASQDVYFGVAWYQQKPGKAPKLLIYGTSYLYSGVPSRFSGSGSGTDFTLTISSLQPEDFATYYCQQFSNWPITFGQGTKVEIKR",EC50,[1],6.46 nM
same,EC50,[2],3.12 nM
same,EC50,[3],3.07 nM
"NP18 (antibody, V domains shown) VH: EVQLVESGGGLVQPGGSLRLSCAASGFTISGGGIHWVRQAPGKGLEWVASIWPSWGSTSYADSVKGRFTISADTSKNTAYLQMNSLRAEDTAVYYCARFHNGGFLVMDYWGQGTLVTVSS VL: DIQMTQSSSSLSASVGDRVTITCRASQDVGYYVAWYQQKPGKAPKLLIYGPRFLYSGVPSRFSGSGSGTDFTLTISSLQPEDFATYYCQQYSNWPITFGQGTKVEIKR",EC50,[1],0.168 nM
"NP4 (antibody, V domains shown) VH: EVQLVESGGGLVQPGGSLRLSCAASGFTISNSSIHWVRQAPGKGLEWVAGIGPSGGYTFYADSVKGRFTISADTSKNTAYLQMNSLRAEDTAVYYCARFHSHNSYYSYSHYGYMDYWGQGTLVTVSS VL: DIQMTQSPSSLSASVGDRVTITCRASQDVGWGVAWYQQKPGKAPKLLISGPSSLYSGVPSRFSGSGSGTDFTLTISSLQPEDFATYYCQQYFNYPITFGQGTKVEIKR",EC50,[1],4.02 nM
same,EC50,[2],2.11 nM
same,EC50,[3],0.862 nM
"NP10 (antibody, V domains shown) VH: EVQLVESGGGLVQPGGSLRLSCAASGFTIDNGSIHWVRQAPGKGLEWVAWIWPFGGSTSYADSVKGRFTISADTSKNTAYLQMNSLRAEDTAVYYCARSWSSGYDYWGQGTLVTVSS VL: DIQMTQSPSSLSASVGDRVTITCRASQDVSWSVAWYQQKPGKAPKLLISGSTWLYSGVPSRFSGSGSGTDFTLTISSLQPEDFATYYCQQYSNSPITFGQGTKVEIKR",EC50,[2],3.3 nM
same,EC50,[3],0.798 nM
"NP9 (antibody, V domains shown) VH: EVQLVESGGGLVQPGGSLRLSCAASGFTINNGWIHWVRQAPGKGLEWVAGIGPYWGFTSYADSVKGRFMISADTSKNTAYLQMNSLRAEDTAVYYCARFDSDHDHHYSYYYYYDNGYMDYWGQGTLVTVSS VL: DIQMTQSPSSLSASVGDRVTITCRASQDVWFSVAWYQQKPGKAPKLLIYGTTSLYSGVPSRFSGSGSGTDFTLTISSLQPEDFATYYCQQYFNYPLTFGQGTKVEIKR",EC50,[1],2.14 nM
same,EC50,[2],53.9 nM
"NP19 (antibody, V domains shown) VH: EVQLVESGGGLVQPGGSLRLSCAASGFTISSWGIHWVRQAPGKGLEWVAGIGPFWGYTSYADSVKGRFTISADTSKNTAYLQMNSLRAEDTAVYYCARFGVDNYGYMDYWGQGTLVTVSS VL: DIQMTQSPSSLSASVGDRVTITCRASQDVSGWVAWYQQKPGKAPKLLISWSTGLYSGVPSRFSGSGSGTDFTLTISSLQPEDFATYYCQQYFNFPVTFGQGTKVEIKR",EC50,[1],0.304 nM
same,EC50,[2],5.37 nM
same,EC50,[3],0.863 nM
"NP5 (antibody, V domains shown) VH: EVQLVESGGGLVQPGGSLRLSCAASGFTISNGSIHWVRQAPGKGLEWVAGIWPSGGSTSYADSVKGRFTISADTINNSAYLQMNSLRAEDTAVYYCARWNYWGQGTLVTVSS VL: DIQMTQSPSSLSASVGDRVTITCRASQDVGWSVAWYQQKPGKAPKLLIYGSRWLYSGVPSRFSGSGSGTDFTLTISSLQPEDFATYYCQQGYNGPLTFGQGTKVEIKR",EC50,[2],3.32 nM
same,EC50,[3],0.918 nM
"NP16 (antibody, V domains shown) VH: EVQLVESGGGLVQPGGSLRLSCAASGFTIGNSGIHWVRQAPGKGLEWVAWIGPYWGFTSYADSVKGRFTISADTSKNTAYLQMNSLRAEDTAVYYCARFGNHWHLFMDYWGQGTLVTVSS VL: DIQMTQSPSSLSASVGDRVTITCRASQDVGSYVAWYQQKPGKAPKLLISWTTGLYSGVPSRFSGSGSGTDFTLTISSLQPEDFATYYCQQYFSYPVTFGQGTKVEIKR",EC50,[1],0.239 nM
same,EC50,[2],4.41 nM
same,EC50,[3],0.919 nM
"NP14 (antibody, V domains shown) VH: EVQLVESGGGLVQPGGSLRLSCAASGFTIDNGGIHWVRQAPGKGLEWVASIWPSWGSTSYADSVKGRFTISADTSKNTAYLQMNSLRAEDTAVYYCARFNFGVFGVMDYWGQGTLVTVSS VL: DIQMTQSPSSLSASVGDRVTITCRASQDVDNDVAWYQQKPGKAPKLLIYGPRGLYSGVPSRFSGSGSGTDFTLTISSLQPEDFATYYCQQYSSWPLTFGQGTKVEIKR",EC50,[1],3.43 nM
"NP8 (antibody, V domains shown) VH: EVQLVESGGGLVQPGGSLRLSCAASGFTINSFGIHWVRQAPGKGLEWVAGIGPFGGSTFYADSVKGRFTISADTSKNTAYLQMNSLRAEDTAVYYCARGFYWFDYWGQGTLVTVSS VL: DIQMTQSPSSLSASVGDRVTITCRASQDVDDSVAWYQQKPGKAPKLLIYWTRYLYSGVPSRFSGSGSGTDFTLTISSLQPEDFATYYCQQGYNYPLTFGQGTKVEIKR",EC50,[2],2.33 nM
same,EC50,[3],0.752 nM
"NP15 (antibody, V domains shown) VH: EVQLVESGGGLVQPGGSLRLSCAASGFTISNWYIHWVRQAPGKGLEWVAGIGPYGGSTYYADSVKGRFTISADTSKNTAYLQMNSLRAEDTAVYYCARFHWDHLHGMDYWGQGTLVTVSS VL: DIQMTQSPSSLSASVGDRVTITCRASQDVDNNVAWYQQKPGKAPKLLISYSTGLYSGVPSRFSGSGSGTDFTLTISSLQPEDFATYYCQQYWNYPITFGQGTKVEIKR",EC50,[1],0.249 nM
same,EC50,[2],2.79 nM
same,EC50,[3],0.806 nM
"NP7 (antibody, V domains shown) VH: EVQLVESGGGLVQPGGSLRLSCAASGFTISNGGIHWVRQAPGKGLEWVAGIGPYGGFTSYADSVKGRFTISADTSKNTAYLQMNSLRAEDTAVYYCARFYSNYYGYHGVMDYWGQGTLVTVSS VL: DIQMTQSPSSLSASVGDRVTITCRASQDVFGWVAWYQQKPGKAPKLLISYSASLYSGVPSRFSGSGSGTDFTLTISSLQPEDFATYYCQQYFNYPLTFGQGTKVEIKR",EC50,[2],2.36 nM
same,EC50,[3],0.9 nM
"NP13 (antibody, V domains shown) VH: EVQLVESGGGLVQPGGSLRLSCAASGFTINNYGIHWVRQAPGKGLEWVASIGPYGGSTYYADSVKGRFTISADTSKNTAYLQMNSLRAEDTAVYYCARFGYFNWLDMDYWGQGTLVTVSS VL: DIQMTQSPSSLSASVGDRVTITCRASQDVGYWVAWYQQKPGKAPKLLISSASGLYSGVPSRFSGSGSGTDFTLTISSLQPEDFATYYCQQGWDWPITFGQGTKVEIKR",EC50,[1],1.68 nM
same,EC50,[2],168 nM
same,EC50,[3],47.9 nM
"NP12 (antibody, V domains shown) VH: EVQLVESGGGLVQPGGSLRLSCAASGFTIDNGYIHWVRQAPGKGLEWVASIWPSWGSTYYADSVKGRFTISADTSKNTAYLQMNSLRAEDTAVYYCARGFYYYGDYWGQGTLVTVSS VL: DIQMTQSPSSLSASVGDRVTITCRASQDVGGNVAWYQQKPGKAPKLLISSTAGLYSGVPSRFSGSGSGTDFTLTISSLQPEDFATYYCQQYYDFPLTFGQGTKVEIKR",EC50,[1],6.09 nM
